In this test the test system is colorectal carcinoma MC38. As to the kind of experiment: Example 7.2.1: MC38 subcutaneous xenograft, marketed PD-1 inhibitors and 2′,3′-cGAMP. It counts as in vivo, mouse. The note with it: intratumor injection; PD-1 antibody 10 mg/kg, 2′,3′-cGAMP 1 mg/kg; every other day, 3 times. As to the method: Tumor cells were cultured and passaged, cells were collected at the logarithmic phase, and formulated into a concentration of (1.0×10^7) per milliliter of cell suspension with 0.1 ml (with a cell number of 1.0×10^6) being injected into the right flank of the mice, the tumor grew to a diameter of about 5 mm within about 10 days, and the model was successfully established, they were randomly divided into 8 groups with 8 mice per group.
Trend of changes in body weight and tumor volume of mice, survival rate of mice, and inhibitory rate of anatomical tumor weight.
Drug interaction coefficient: CDI(CI)=AB/A*B. AB is the ratio of the combination group of two drugs to the control group, as calculated based on the anatomical tumor weight. A or B is the ratio of single drug group to control group.
After successfully establishing a subcutaneous xenograft tumor model of colorectal carcinoma MC38 in mice, they were randomly grouped with 6-8 mice per group and administered once every two days, a total of 3 times.

B1: Tislelizumab: marketed PD-1 monoclonal antibody (antibody, chains of the INN, looked up)
heavy: QVQLQESGPGLVKPSETLSLTCTVSGFSLTSYGVHWIRQPPGKGLEWIGVIYADGSTNYNPSLKSRVTISKDTSKNQVSLKLSSVTAADTAVYYCARAYGNYWYIDVWGQGTTVTVSSASTKGPSVFPLAPCSRSTSESTAALGCLVKDYFPEPVTVSWNSGALTSGVHTFPAVLQSSGLYSLSSVVTVPSSSLGTKTYTCNVDHKPSNTKVDKRVESKYGPPCPPCPAPPVAGGPSVFLFPPKPKDTLMISRTPEVTCVVVAVSQEDPEVQFNWYVDGVEVHNAKTKPREEQFNSTYRVVSVLTVVHQDWLNGKEYKCKVSNKGLPSSIEKTISKAKGQPREPQVYTLPPSQEEMTKNQVSLTCLVKGFYPSDIAVEWESNGQPENNYKTTPPVLDSDGSFFLYSKLTVDKSRWQEGNVFSCSVMHEALHNHYTQKSLSLSLG
light: DIVMTQSPDSLAVSLGERATINCKSSESVSNDVAWYQQKPGQPPKLLINYAFHRFTGVPDRFSGSGYGTDFTLTISSLQAEDVAVYYCHQAYSSPYTFGQGTKLEIKRTVAAPSVFIFPPSDEQLKSGTASVVCLLNNFYPREAKVQWKVDNALQSGNSQESVTEQDSKDSTYSLSSTLTLSKADYEKHKVYACEVTHQGLSSPVTKSFNRGEC
Consider B1, for which the “IRTW % (tumor weight inhibitory rate)” value was found to be 61.4% and the “Tumor Weight” value is 0.59 g.

B2: Camrelizumab: marketed PD-1 monoclonal antibody (antibody, chains of the INN, looked up, V domains shown)
VH: EVQLVESGGGLVQPGGSLRLSCAASGFTFSSYMMSWVRQAPGKGLEWVATISGGGANTYYPDSVKGRFTISRDNAKNSLYLQMNSLRAEDTAVYYCARQLYYFDYWGQGTTVTVSS
VL: DIQMTQSPSSLSASVGDRVTITCLASQTIGTWLTWYQQKPGKAPKLLIYTATSLADGVPSRFSGSGSGTDFTLTISSLQPEDFATYYCQQVYSIPWTFGGGTKVEIK
As for B2, the “IRTW % (tumor weight inhibitory rate)” value is 19.6% and the “Tumor Weight” value is reported as 1.23 g.

These data come from patent publication US20250282871A1, “PHARMACEUTICAL COMBINATION AND USE THEREOF” (TIANJIN LIPOGEN TECHNOLOGY CO., LTD, priority 2021, published 2025).
